{"source": "paper PMC8667318", "molecular_target": "Recombinant human MCHR1 Protein (human) (UniProt Q99705)", "sequence (Q99705 whole entry)": "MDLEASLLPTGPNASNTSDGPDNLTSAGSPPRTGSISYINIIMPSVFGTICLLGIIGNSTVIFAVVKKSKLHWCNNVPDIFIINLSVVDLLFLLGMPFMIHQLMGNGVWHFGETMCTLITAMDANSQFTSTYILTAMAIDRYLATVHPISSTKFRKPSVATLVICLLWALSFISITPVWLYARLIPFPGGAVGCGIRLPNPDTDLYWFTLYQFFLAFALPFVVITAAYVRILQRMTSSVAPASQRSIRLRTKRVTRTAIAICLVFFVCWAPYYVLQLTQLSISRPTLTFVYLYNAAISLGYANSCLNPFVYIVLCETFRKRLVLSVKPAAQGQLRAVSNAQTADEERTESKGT", "assay": "SPR; Biacore T200, CM5 chip, 25°C; MCHR1 immobilised by amine coupling (~5500 RU); PDGF-BB as analyte 100 nM to 3.125 nM; PBS-P (20 mM phosphate pH 7.4, 137 mM NaCl, 2.7 mM KCl, 0.05% P20); 1:1 kinetics model fitting"}
{"substance": "Recombinant human PDGF-BB (from UniProt P01127 82-190) (ligand)", "values": [{"measurement": "Kd", "result": 46.6, "unit": "nM"}]}
